PMC10397247

Key:
Assay in all cases: two-hybrid library CCmax;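 note: natural log of median RNA to DNA barcode read ratio; higher means stronger binding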
4H930-AA = target: T1, 4H930-AA; details: mean of both orientations
T1 chain: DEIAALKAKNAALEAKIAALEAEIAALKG

4H2698-AA = target: T2, 4H2698-AA; details: mean of both orientations
T2 chain: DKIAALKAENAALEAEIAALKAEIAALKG

4H458-AA = target: T3, 4H458-AA; details: mean of both orientations
T3 chain: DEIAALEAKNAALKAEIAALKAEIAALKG

4H570-AA = target: T4, 4H570-AA; details: mean of both orientations
T4 chain: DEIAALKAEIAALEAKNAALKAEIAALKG

4H1864-AA = target: T5, 4H1864-AA; details: mean of both orientations
T5 chain: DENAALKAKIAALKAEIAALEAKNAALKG

4H536-AA = target: T6, 4H536-AA; details: mean of both orientations
T6 chain: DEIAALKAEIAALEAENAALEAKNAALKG

4H2253-AA = target: T7, 4H2253-AA; details: mean of both orientations
T7 chain: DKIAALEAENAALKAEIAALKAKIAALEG

4H2330-AA = target: T8, 4H2330-AA
T8 chain: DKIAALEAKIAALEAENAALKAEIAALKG

4H3381-AA = target: T9, 4H3381-AA; details: mean of both orientations
T9 chain: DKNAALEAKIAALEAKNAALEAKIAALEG

4H710-AA = target: T10, 4H710-AA; details: mean of both orientations
T10 chain: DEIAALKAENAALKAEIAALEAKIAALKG

4H2274-AA = target: T11, 4H2274-AA; details: mean of both orientations
T11 chain: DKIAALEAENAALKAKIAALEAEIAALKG

4H3120-AA = target: T12, 4H3120-AA; details: mean of both orientations
T12 chain: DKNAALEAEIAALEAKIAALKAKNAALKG

4H2725-AA = target: T13, 4H2725-AA
T13 chain: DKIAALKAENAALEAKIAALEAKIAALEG

4H310-AA = target: T14, 4H310-AA; details: mean of both orientations
T14 chain: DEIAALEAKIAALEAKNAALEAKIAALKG

4H1877-AA = target: T15, 4H1877-AA; details: mean of both orientations
T15 chain: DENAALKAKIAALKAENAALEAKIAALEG

4H3009-AA = target: T16, 4H3009-AA; details: mean of both orientations
T16 chain: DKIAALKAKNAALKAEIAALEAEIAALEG

4H2649-AA = target: T17, 4H2649-AA; details: mean of both orientations
T17 chain: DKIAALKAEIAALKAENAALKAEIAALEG

4H909-AA = target: T18, 4H909-AA; details: mean of both orientations
T18 chain: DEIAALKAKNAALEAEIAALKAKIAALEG

4H3016-AA = target: T19, 4H3016-AA; details: mean of both orientations
T19 chain: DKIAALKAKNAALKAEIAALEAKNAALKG

4H3395-AA = target: T20, 4H3395-AA; details: mean of both orientations
T20 chain: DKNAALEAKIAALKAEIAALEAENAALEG

4H94-AA = target: T21, 4H94-AA; details: mean of both orientations
T21 chain: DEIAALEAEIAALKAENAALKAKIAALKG

4H797-AA = target: T22, 4H797-AA; details: mean of both orientations
T22 chain: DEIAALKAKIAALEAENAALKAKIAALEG

4H3697-AA = target: T23, 4H3697-AA; details: mean of both orientations
T23 chain: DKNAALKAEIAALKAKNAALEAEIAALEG

4H2438-AA = target: T24, 4H2438-AA; details: mean of both orientations
T24 chain: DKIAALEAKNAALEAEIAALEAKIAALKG

4H2865-AA = target: T25, 4H2865-AA; details: mean of both orientations
T25 chain: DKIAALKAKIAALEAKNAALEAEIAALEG

4H2162-AA = target: T26, 4H2162-AA; details: mean of both orientations
T26 chain: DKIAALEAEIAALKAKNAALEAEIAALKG

4H2473-AA = target: T27, 4H2473-AA; details: mean of both orientations
T27 chain: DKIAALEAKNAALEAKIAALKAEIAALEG

4H850-AA = target: T28, 4H850-AA; details: mean of both orientations
T28 chain: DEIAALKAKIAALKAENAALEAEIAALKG

4H3590-AA = target: T29, 4H3590-AA; details: mean of both orientations
T29 chain: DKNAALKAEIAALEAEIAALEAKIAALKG

4H745-AA = target: T30, 4H745-AA; details: mean of both orientations
T30 chain: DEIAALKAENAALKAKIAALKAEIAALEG

4H3410-AA = target: T31, 4H3410-AA; details: mean of both orientations
T31 chain: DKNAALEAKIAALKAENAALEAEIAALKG

4H3165-AA = target: T32, 4H3165-AA; details: mean of both orientations
T32 chain: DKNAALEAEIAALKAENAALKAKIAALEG

4H3130-AA = target: T33, 4H3130-AA; details: mean of both orientations
T33 chain: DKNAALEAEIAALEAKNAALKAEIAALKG

4H2389-AA = target: T34, 4H2389-AA; details: mean of both orientations
T34 chain: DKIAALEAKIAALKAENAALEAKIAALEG

4H891-AA = target: T35, 4H891-AA; details: mean of both orientations
T35 chain: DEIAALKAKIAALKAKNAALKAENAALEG

4H3865-AA = target: T36, 4H3865-AA; details: mean of both orientations
T36 chain: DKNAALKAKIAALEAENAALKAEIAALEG

4H485-AA = target: T37, 4H485-AA; details: mean of both orientations
T37 chain: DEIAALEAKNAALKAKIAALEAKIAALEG

4H2109-AA = target: T38, 4H2109-AA; details: mean of both orientations
T38 chain: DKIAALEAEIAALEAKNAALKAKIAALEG

4H1842-AA = target: T39, 4H1842-AA
T39 chain: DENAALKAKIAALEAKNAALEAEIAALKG

4H629-AA = target: T40, 4H629-AA; details: mean of both orientations
T40 chain: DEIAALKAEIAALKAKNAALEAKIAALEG

4H3753-AA = target: T41, 4H3753-AA; details: mean of both orientations
T41 chain: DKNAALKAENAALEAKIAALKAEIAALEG

4H953-AA = target: T42, 4H953-AA; details: mean of both orientations
T42 chain: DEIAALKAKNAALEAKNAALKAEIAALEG

4H918-AA = target: T43, 4H918-AA; details: mean of both orientations
T43 chain: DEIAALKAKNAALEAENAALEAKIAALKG

4H883-AA = target: T44, 4H883-AA; details: mean of both orientations
T44 chain: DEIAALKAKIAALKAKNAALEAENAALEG

4H717-AA = target: T45, 4H717-AA; details: mean of both orientations
T45 chain: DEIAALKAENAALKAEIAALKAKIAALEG

4H568-AA = target: T46, 4H568-AA
T46 chain: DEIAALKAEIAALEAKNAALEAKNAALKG

4H967-AA = target: T47, 4H967-AA; details: mean of both orientations
T47 chain: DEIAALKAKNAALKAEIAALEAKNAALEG

4H687-AA = target: T48, 4H687-AA; details: mean of both orientations
T48 chain: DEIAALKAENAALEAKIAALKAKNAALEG

Binder: DENAALKAKIAALEAKNAALEAEIAALKG [4H1842-AA]
- interaction score (4H930-AA): -1.21
- interaction score (4H2698-AA): -0.986
- interaction score (4H458-AA): -1.14
- interaction score (4H570-AA): 0.585
- interaction score (4H1864-AA): -1.82
- interaction score (4H536-AA): -1.7
- interaction score (4H2253-AA): -1.72
- interaction score (4H2330-AA): -1.35
- interaction score (4H3381-AA): -1.2
- interaction score (4H710-AA): -1.63
- interaction score (4H2274-AA): -1.6
- interaction score (4H3120-AA): -1.44
- interaction score (4H2725-AA): -1.86
- interaction score (4H310-AA): 0.761
- interaction score (4H1877-AA): -1.15
- interaction score (4H3009-AA): -1.78
- interaction score (4H2649-AA): -1.27
- interaction score (4H909-AA): -1.17
- interaction score (4H3016-AA): -1.43
- interaction score (4H3395-AA): -2.04
- interaction score (4H94-AA): -1.17
- interaction score (4H797-AA): -1.34
- interaction score (4H3697-AA): -1.01
- interaction score (4H2438-AA): -1.14
- interaction score (4H2865-AA): -0.0645
- interaction score (4H2162-AA): -1.21
- interaction score (4H2473-AA): -1.44
- interaction score (4H850-AA): 0.256
- interaction score (4H3590-AA): -0.391
- interaction score (4H745-AA): -1.86
- interaction score (4H3410-AA): -0.8
- interaction score (4H3165-AA): -1.43
- interaction score (4H3130-AA): 0.65
- interaction score (4H2389-AA): -1.52
- interaction score (4H891-AA): -1.42
- interaction score (4H3865-AA): -0.938
- interaction score (4H485-AA): -1.94
- interaction score (4H2109-AA): -1.43
- interaction score (4H1842-AA): 1.88
- interaction score (4H629-AA): -1.59
- interaction score (4H3753-AA): -1.52

Binder: DEIAALKAEIAALEAKNAALEAKNAALKG [4H568-AA]
- interaction score (4H953-AA): -1.78
- interaction score (4H918-AA): -1.24
- interaction score (4H883-AA): 2.12
- interaction score (4H717-AA): -1.75
- interaction score (4H797-AA): -1.39
- interaction score (4H568-AA): -0.405
- interaction score (4H967-AA): -0.838
- interaction score (4H687-AA): -1.51
